Substitutions are numbered along the chain they refer to.
T1: APBA1_2, Q02410
T1 sequence (Q02410 742-832, limits assumed, looked up): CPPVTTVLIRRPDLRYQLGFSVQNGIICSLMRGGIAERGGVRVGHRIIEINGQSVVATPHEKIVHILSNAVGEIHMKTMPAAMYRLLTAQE

T2: APBA2_2, Q99767
T2 sequence (Q99767 654-744, limits assumed, looked up): T1 sequence (Q02410 742-832, limits assumed, looked up) with R10K, R15K, P59A, H65Q, I66A, A70S, Y84F, A89G

T3: ARHGAP21, Q5T5U3
T3 sequence (Q5T5U3 45-169, limits assumed, looked up): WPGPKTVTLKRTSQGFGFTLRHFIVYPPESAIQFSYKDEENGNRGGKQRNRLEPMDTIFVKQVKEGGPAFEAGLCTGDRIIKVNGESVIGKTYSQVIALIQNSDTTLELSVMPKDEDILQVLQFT

T4: GRIP1_5, Q9Y3R0
T4 sequence (Q9Y3R0 568-668, limits assumed, looked up): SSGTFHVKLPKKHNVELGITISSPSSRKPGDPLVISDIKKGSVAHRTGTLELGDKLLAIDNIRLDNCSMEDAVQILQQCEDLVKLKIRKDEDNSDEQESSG

T5: LIN7B, Q9HAP6
T5 sequence (Q9HAP6 88-185, limits assumed, looked up): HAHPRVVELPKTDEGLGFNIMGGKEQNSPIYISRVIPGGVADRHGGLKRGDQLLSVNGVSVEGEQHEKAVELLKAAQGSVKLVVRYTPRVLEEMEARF

T6: MPDZ_5, O75970
T6 sequence (O75970 695-796, limits assumed, looked up): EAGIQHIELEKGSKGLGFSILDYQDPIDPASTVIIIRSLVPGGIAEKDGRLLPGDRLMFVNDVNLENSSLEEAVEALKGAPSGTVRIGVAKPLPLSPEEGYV

T7: MPP2, Q14168
T7 sequence (Q14168 180-250, limits assumed, looked up): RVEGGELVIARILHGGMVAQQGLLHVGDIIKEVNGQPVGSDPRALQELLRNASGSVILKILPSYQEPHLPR

T8: MPP7, Q5T2T1
T8 sequence (Q5T2T1 134-230, limits assumed, looked up): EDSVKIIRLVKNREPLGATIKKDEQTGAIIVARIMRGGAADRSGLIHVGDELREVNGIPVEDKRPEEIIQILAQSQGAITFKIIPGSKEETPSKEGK

T9: NHERF3_3, Q5T2W1
T9 sequence (Q5T2W1 238-333, limits assumed, looked up): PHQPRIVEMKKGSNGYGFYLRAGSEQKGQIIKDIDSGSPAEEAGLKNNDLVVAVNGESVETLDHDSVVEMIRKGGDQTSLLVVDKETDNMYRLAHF

T10: NHERF3_4, Q5T2W1
T10 sequence (Q5T2W1 373-468, limits assumed, looked up): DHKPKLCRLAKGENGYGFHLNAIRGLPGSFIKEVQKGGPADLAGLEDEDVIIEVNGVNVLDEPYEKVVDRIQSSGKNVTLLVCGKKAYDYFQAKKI

T11: PDZD7_3, Q9H5P4
T11 sequence (Q9H5P4 857-944, limits assumed, looked up): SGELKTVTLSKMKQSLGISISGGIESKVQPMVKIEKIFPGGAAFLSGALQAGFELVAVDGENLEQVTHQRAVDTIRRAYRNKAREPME

T12: SIPA1L2, Q9P2F8
T12 sequence (Q9P2F8 945-1036, limits assumed, looked up): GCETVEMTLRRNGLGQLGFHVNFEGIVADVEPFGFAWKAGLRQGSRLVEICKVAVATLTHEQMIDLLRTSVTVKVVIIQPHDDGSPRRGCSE

T13: SNTB1, Q13884
T13 sequence (Q13884 107-205, limits assumed, looked up): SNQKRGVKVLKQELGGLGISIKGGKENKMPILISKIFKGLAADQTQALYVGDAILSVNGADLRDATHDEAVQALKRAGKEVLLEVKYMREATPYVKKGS

T14: TX1BP3, O14907
T14 sequence (O14907 10-122, limits assumed, looked up): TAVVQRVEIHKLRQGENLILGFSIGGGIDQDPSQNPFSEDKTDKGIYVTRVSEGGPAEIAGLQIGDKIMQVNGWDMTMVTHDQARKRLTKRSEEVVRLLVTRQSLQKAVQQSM


target: T1, APBA1_2, Q02410; test: holdup assay; parameters: key: below the threshold = too weak to quantify, mostly under pKd 3.1 to 4; conditions: plain residues with an end cap or a label only (N-terminal biotin on a linker: ado-ado)

pKd | Binder
below the threshold | NIAESLESLV [PTPRZ1, P23471]
3.88 | VKRNSKETVV [MARCHF3, Q86UD3]

target: T2, APBA2_2, Q99767; test: holdup assay; parameters: key: below the threshold = too weak to quantify, mostly under pKd 3.1 to 4; conditions: plain residues with an end cap or a label only (N-terminal biotin on a linker: ado-ado)

pKd | Binder
below the threshold | NIAESLESLV [PTPRZ1, P23471]
below the threshold | VKRNSKETVV [MARCHF3, Q86UD3]

target: T3, ARHGAP21, Q5T5U3; test: holdup assay; parameters: key: below the threshold = too weak to quantify, mostly under pKd 3.1 to 4; conditions: plain residues with an end cap or a label only (N-terminal biotin on a linker: ado-ado)

pKd | Binder
below the threshold | NIAESLESLV [PTPRZ1, P23471]
below the threshold | VKRNSKETVV [MARCHF3, Q86UD3]

target: ARHGEF12, Q9NZN5-2; test: holdup assay; parameters: key: below the threshold = too weak to quantify, mostly under pKd 3.1 to 4; conditions: plain residues with an end cap or a label only (N-terminal biotin on a linker: ado-ado)
Sequence (Q9NZN5 other isoform, or with tags, fused parts or gaps): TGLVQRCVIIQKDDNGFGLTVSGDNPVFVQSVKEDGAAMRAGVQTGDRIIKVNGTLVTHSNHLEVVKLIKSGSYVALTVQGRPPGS

pKd | Binder
below the threshold | NIAESLESLV [PTPRZ1, P23471]
4.13 | VKRNSKETVV [MARCHF3, Q86UD3]

target: CASK, O14936; test: holdup assay; parameters: key: below the threshold = too weak to quantify, mostly under pKd 3.1 to 4; conditions: plain residues with an end cap or a label only (N-terminal biotin on a linker: ado-ado)
Sequence (O14936 487-570): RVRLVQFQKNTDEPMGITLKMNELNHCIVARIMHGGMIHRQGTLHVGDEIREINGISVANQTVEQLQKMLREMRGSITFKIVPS

pKd | Binder
below the threshold | NIAESLESLV [PTPRZ1, P23471]
below the threshold | VKRNSKETVV [MARCHF3, Q86UD3]

target: DLG4_1, P78352; test: holdup assay; parameters: key: below the threshold = too weak to quantify, mostly under pKd 3.1 to 4; conditions: plain residues with an end cap or a label only (N-terminal biotin on a linker: ado-ado)
Sequence (P78352 62-152): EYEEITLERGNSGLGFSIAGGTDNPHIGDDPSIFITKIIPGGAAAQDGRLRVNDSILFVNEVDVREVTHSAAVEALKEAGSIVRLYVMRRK

pKd | Binder
4.65 | NIAESLESLV [PTPRZ1, P23471]
5.48 | VKRNSKETVV [MARCHF3, Q86UD3]

target: FRMPD2_2, Q68DX3; test: holdup assay; parameters: key: below the threshold = too weak to quantify, mostly under pKd 3.1 to 4; conditions: plain residues with an end cap or a label only (N-terminal biotin on a linker: ado-ado)
Sequence (Q68DX3 944-1038): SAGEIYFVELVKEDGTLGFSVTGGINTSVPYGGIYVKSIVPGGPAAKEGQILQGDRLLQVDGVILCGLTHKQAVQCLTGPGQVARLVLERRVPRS

pKd | Binder
4.66 | NIAESLESLV [PTPRZ1, P23471]
3.81 | VKRNSKETVV [MARCHF3, Q86UD3]

target: T4, GRIP1_5, Q9Y3R0; test: holdup assay; parameters: key: below the threshold = too weak to quantify, mostly under pKd 3.1 to 4; conditions: plain residues with an end cap or a label only (N-terminal biotin on a linker: ado-ado)

pKd | Binder
below the threshold | NIAESLESLV [PTPRZ1, P23471]
below the threshold | VKRNSKETVV [MARCHF3, Q86UD3]

target: GRIP2_4, Q9C0E4; test: holdup assay; parameters: key: below the threshold = too weak to quantify, mostly under pKd 3.1 to 4; conditions: plain residues with an end cap or a label only (N-terminal biotin on a linker: ado-ado)
Sequence (Q9C0E4 446-548): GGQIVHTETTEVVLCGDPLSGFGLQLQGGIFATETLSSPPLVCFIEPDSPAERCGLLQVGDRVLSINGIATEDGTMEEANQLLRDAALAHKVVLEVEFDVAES

pKd | Binder
below the threshold | NIAESLESLV [PTPRZ1, P23471]
below the threshold | VKRNSKETVV [MARCHF3, Q86UD3]

target: Inadl_4, Q8NI35; test: holdup assay; parameters: key: below the threshold = too weak to quantify, mostly under pKd 3.1 to 4; conditions: plain residues with an end cap or a label only (N-terminal biotin on a linker: ado-ado)
Sequence (Q8NI35 547-651): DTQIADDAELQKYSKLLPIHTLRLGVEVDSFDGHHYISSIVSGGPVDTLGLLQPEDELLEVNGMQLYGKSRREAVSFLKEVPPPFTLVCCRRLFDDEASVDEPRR

pKd | Binder
below the threshold | NIAESLESLV [PTPRZ1, P23471]
below the threshold | VKRNSKETVV [MARCHF3, Q86UD3]

target: T5, LIN7B, Q9HAP6; test: holdup assay; parameters: key: below the threshold = too weak to quantify, mostly under pKd 3.1 to 4; conditions: plain residues with an end cap or a label only (N-terminal biotin on a linker: ado-ado)

pKd | Binder
below the threshold | NIAESLESLV [PTPRZ1, P23471]
3.86 | VKRNSKETVV [MARCHF3, Q86UD3]

target: MAGI2_6, Q86UL8; test: holdup assay; parameters: key: below the threshold = too weak to quantify, mostly under pKd 3.1 to 4; conditions: plain residues with an end cap or a label only (N-terminal biotin on a linker: ado-ado)
Sequence (Q86UL8 1141-1229): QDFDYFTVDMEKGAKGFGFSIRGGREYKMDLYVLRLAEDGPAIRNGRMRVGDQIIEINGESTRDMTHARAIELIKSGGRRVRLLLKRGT

pKd | Binder
3.96 | NIAESLESLV [PTPRZ1, P23471]
below the threshold | VKRNSKETVV [MARCHF3, Q86UD3]

target: MAST2, Q6P0Q8; test: holdup assay; parameters: key: below the threshold = too weak to quantify, mostly under pKd 3.1 to 4; conditions: plain residues with an end cap or a label only (N-terminal biotin on a linker: ado-ado)
Sequence (Q6P0Q8 1099-1202): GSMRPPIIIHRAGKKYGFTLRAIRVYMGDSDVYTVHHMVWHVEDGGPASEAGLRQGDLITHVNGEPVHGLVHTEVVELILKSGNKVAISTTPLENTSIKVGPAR

pKd | Binder
4.79 | NIAESLESLV [PTPRZ1, P23471]
4.68 | VKRNSKETVV [MARCHF3, Q86UD3]

target: T6, MPDZ_5, O75970; test: holdup assay; parameters: key: below the threshold = too weak to quantify, mostly under pKd 3.1 to 4; conditions: plain residues with an end cap or a label only (N-terminal biotin on a linker: ado-ado)

pKd | Binder
below the threshold | NIAESLESLV [PTPRZ1, P23471]
below the threshold | VKRNSKETVV [MARCHF3, Q86UD3]

target: T7, MPP2, Q14168; test: holdup assay; parameters: key: below the threshold = too weak to quantify, mostly under pKd 3.1 to 4; conditions: plain residues with an end cap or a label only (N-terminal biotin on a linker: ado-ado)

pKd | Binder
below the threshold | NIAESLESLV [PTPRZ1, P23471]
below the threshold | VKRNSKETVV [MARCHF3, Q86UD3]

target: T8, MPP7, Q5T2T1; test: holdup assay; parameters: key: below the threshold = too weak to quantify, mostly under pKd 3.1 to 4; conditions: plain residues with an end cap or a label only (N-terminal biotin on a linker: ado-ado)

pKd | Binder
below the threshold | NIAESLESLV [PTPRZ1, P23471]
below the threshold | VKRNSKETVV [MARCHF3, Q86UD3]

target: T9, NHERF3_3, Q5T2W1; test: holdup assay; parameters: key: below the threshold = too weak to quantify, mostly under pKd 3.1 to 4; conditions: plain residues with an end cap or a label only (N-terminal biotin on a linker: ado-ado)

pKd | Binder
below the threshold | NIAESLESLV [PTPRZ1, P23471]
below the threshold | VKRNSKETVV [MARCHF3, Q86UD3]

target: T10, NHERF3_4, Q5T2W1; test: holdup assay; parameters: key: below the threshold = too weak to quantify, mostly under pKd 3.1 to 4; conditions: plain residues with an end cap or a label only (N-terminal biotin on a linker: ado-ado)

pKd | Binder
below the threshold | NIAESLESLV [PTPRZ1, P23471]
below the threshold | VKRNSKETVV [MARCHF3, Q86UD3]

target: PDLIM1, O00151; test: holdup assay; parameters: key: below the threshold = too weak to quantify, mostly under pKd 3.1 to 4; conditions: plain residues with an end cap or a label only (N-terminal biotin on a linker: ado-ado)
Sequence (O00151 1-87): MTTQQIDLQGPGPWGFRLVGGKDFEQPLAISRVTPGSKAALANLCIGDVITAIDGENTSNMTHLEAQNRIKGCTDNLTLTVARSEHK

pKd | Binder
below the threshold | NIAESLESLV [PTPRZ1, P23471]
below the threshold | VKRNSKETVV [MARCHF3, Q86UD3]

target: T11, PDZD7_3, Q9H5P4; test: holdup assay; parameters: key: below the threshold = too weak to quantify, mostly under pKd 3.1 to 4; conditions: plain residues with an end cap or a label only (N-terminal biotin on a linker: ado-ado)

pKd | Binder
4.7 | NIAESLESLV [PTPRZ1, P23471]
4.82 | VKRNSKETVV [MARCHF3, Q86UD3]

target: PTPN3, P26045; test: holdup assay; parameters: key: below the threshold = too weak to quantify, mostly under pKd 3.1 to 4; conditions: plain residues with an end cap or a label only (N-terminal biotin on a linker: ado-ado)
Sequence (P26045 505-587): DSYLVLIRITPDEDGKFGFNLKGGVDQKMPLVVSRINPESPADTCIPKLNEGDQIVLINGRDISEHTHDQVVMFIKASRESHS

pKd | Binder
4.64 | NIAESLESLV [PTPRZ1, P23471]
4.79 | VKRNSKETVV [MARCHF3, Q86UD3]

target: T12, SIPA1L2, Q9P2F8; test: holdup assay; parameters: key: below the threshold = too weak to quantify, mostly under pKd 3.1 to 4; conditions: plain residues with an end cap or a label only (N-terminal biotin on a linker: ado-ado)

pKd | Binder
below the threshold | NIAESLESLV [PTPRZ1, P23471]
below the threshold | VKRNSKETVV [MARCHF3, Q86UD3]

target: T13, SNTB1, Q13884; test: holdup assay; parameters: key: below the threshold = too weak to quantify, mostly under pKd 3.1 to 4; conditions: plain residues with an end cap or a label only (N-terminal biotin on a linker: ado-ado)

pKd | Binder
4.68 | NIAESLESLV [PTPRZ1, P23471]
5.19 | VKRNSKETVV [MARCHF3, Q86UD3]

target: T14, TX1BP3, O14907; test: holdup assay; parameters: key: below the threshold = too weak to quantify, mostly under pKd 3.1 to 4; conditions: plain residues with an end cap or a label only (N-terminal biotin on a linker: ado-ado)

pKd | Binder
4.26 | NIAESLESLV [PTPRZ1, P23471]
4.16 | VKRNSKETVV [MARCHF3, Q86UD3]

Source: article PMC9482650, “Quantitative fragmentomics allow affinity mapping of interactomes” (Nature Communications, 2022)
